Test results as given in patent US20050282740A1.
Where two headings read alike, the source gives them in different places.

Legend:
[1] = molecular target: proteins from 32P or 35S-labeled HeLa cell lysates; test: GST pull-down from labeled HeLa lysates pretreated with CIP, PP1 and PP2A
EQPLpTPVTDL = test: fluorescence anisotropy, GST-WW-domain on fluorescein-labelled peptide
WFYpSPFLE [2] = test: as above
WFYpSPFLE [3] = test: fluorescence anisotropy; high affinity site
WFYpSPFLE [4] = test: fluorescence anisotropy; low affinity site
WFYpSPFLE [5] = test: fluorescence anisotropy with fluorescein labeled Pintide; high affinity site
[6] = molecular target: Amyloid Precursor Protein Peptide … (pT-668); test: ELISA on amyloid precursor protein peptide; binder not labelled in the row, taken as Pin1
[7] = molecular target: tau peptide (pT-231), SEQ ID NO: 20; test: ELISA on tau peptides
[8] = molecular target: tau peptide (pT-231), SEQ ID NO: 20; test: ELISA on tau peptides; remark: listed apart in the source
[9] = molecular target: tau peptide (pT-231), SEQ ID NO: 20; test: ELISA on tau peptide
WFYpSPFLE [10] = test: fluorescence anisotropy; Table 2 prints 1.0 for this pair
[11] = molecular target: tau peptide … (pT-231), SEQ ID NO: 29; test: ELISA on tau peptide
GST-Pin1 (human) = GST-Pin1 (human) (UniProt Q13526); test: competition with MPM-2 antigens for GST-Pin1, pull-down and MPM-2 immunoblot
[12] = molecular target: GST-WW-domain of Pin1 (human) (UniProt Q13526); test: competition with MPM-2 antigens for GST-WW-domain of Pin1, pull-down and MPM-2 immunoblot

“GST-Nedd4 WW-domain-1 (from UniProt P46935 249-282)” was tested, and the fold reduction of binding after pretreatment of lysates with Ser phosphatases [1] was 10 fold.
“GST-Nedd4 WW-domain-2 (from UniProt P46935 405-438)” gave a Kd (EQPLpTPVTDL) of 20 µM, a Kd (WFYpSPFLE [2]) of 10 µM and a fold reduction of binding after pretreatment of lysates with Ser phosphatases [1] of 10 fold.
Substance “GST-Pin1 (from UniProt Q13526 1-163) (enzyme)” has a Kd (WFYpSPFLE [3]) of 1.2 µM and a Kd (WFYpSPFLE [4]) of 13 µM.
With “GST-Pin1^R14A (from UniProt Q13526 1-163) (enzyme)” the Kd (WFYpSPFLE [3]) was 2 µM and the Kd (WFYpSPFLE [4]) was 13.5 µM.
“GST-Pin1^S16A (from UniProt Q13526 1-163) (enzyme)” gave a Kd (WFYpSPFLE [3]) of 1.2 µM and a Kd (WFYpSPFLE [4]) of 10.5 µM.
“GST-Pin1^S16E (from UniProt Q13526 1-163) (enzyme)” showed a Kd (WFYpSPFLE [4]) of 10.5 µM.
Work on “GST-Pin1^S18E (from UniProt Q13526 1-163) (enzyme)” yielded a Kd (WFYpSPFLE [3]) of 1 µM and a Kd (WFYpSPFLE [4]) of 12 µM.
“GST-Pin1^W34A (from UniProt Q13526 1-163) (enzyme)” gave a Kd (WFYpSPFLE [4]) of 14 µM.
Work on “GST-Pin1^Y23A (from UniProt P08515 1-218; Q13526 1-163) (enzyme)” yielded a Kd (WFYpSPFLE [4]) of 13.5 µM.
For “GST-WW-domain of Pin1 (from UniProt Q13526 1-54)”, the Kd (EQPLpTPVTDL) was 2.2 µM and the Kd (WFYpSPFLE [2]) was 1 µM.
With “Pin1 (from UniProt Q13526 1-163) (enzyme)” the Kd (WFYpSPFLE [5]) was 1.2 µM, the Kd (WFYpSPFLE [3]) was 1.2 µM and the Binding (OD @ 405 nm) [6] was 1.81 OD 405 nm. The Kd [7] was 0.025 µM, the Kd [8] was 0.04 µM and the Kd (WFYpSPFLE [4]) was 11 µM. The Binding (OD @ 405 nm) [9] was 1.46 OD 405 nm.
In the case of “Pin1 PPIase domain (from UniProt Q13526 47-163) (enzyme)”, the Kd (WFYpSPFLE [4]) is reported as 15 µM.
“Pin1 WW-domain (from UniProt Q13526 1-54)” was tested, and the Kd (WFYpSPFLE [3]) was 1 µM and the Kd (WFYpSPFLE [10]) was 1.2 µM.
“Pin1^R14A (from UniProt Q13526 1-163) (enzyme)” gave a Kd (WFYpSPFLE [5]) of 2 µM and a Binding (OD @ 405 nm) [11] of 1.3 OD 405 nm.
“Pin1^S16A (from UniProt Q13526 1-163) (enzyme)” gave a Kd (WFYpSPFLE [5]) of 1.2 µM.
Substance “Pin1^Y23F (from UniProt Q13526 1-163) (enzyme)” has a Kd (WFYpSPFLE [5]) of 5 µM.
In the case of Pintide (WFYpSPRLKK) (peptide), the peptide concentration at which significant competition was detected (GST-Pin1 (human)) is reported as 50 µM, the peptide concentration of complete competition (GST-Pin1 (human)) is reported as 250 to 500 µM and the peptide concentration at which significant competition was detected [12] is reported as 50 µM. The peptide concentration of complete competition [12] was 250 to 500 µM.
